From patent publication US20040259194A1
Values joined by “and” are separate entries in the source; they are usually repeats but may differ in a detail not shown here. Equal entries are not always repeated.

Biological target: melanin-concentrating hormone receptor 1 (MCHR1) from I3.4.2 cells (human) (UniProt Q99705)
Assay: cell-based or functional assay

Sequence of melanin-concentrating hormone receptor 1 (MCHR1) from I3.4.2 cells (human) (Q99705 whole entry): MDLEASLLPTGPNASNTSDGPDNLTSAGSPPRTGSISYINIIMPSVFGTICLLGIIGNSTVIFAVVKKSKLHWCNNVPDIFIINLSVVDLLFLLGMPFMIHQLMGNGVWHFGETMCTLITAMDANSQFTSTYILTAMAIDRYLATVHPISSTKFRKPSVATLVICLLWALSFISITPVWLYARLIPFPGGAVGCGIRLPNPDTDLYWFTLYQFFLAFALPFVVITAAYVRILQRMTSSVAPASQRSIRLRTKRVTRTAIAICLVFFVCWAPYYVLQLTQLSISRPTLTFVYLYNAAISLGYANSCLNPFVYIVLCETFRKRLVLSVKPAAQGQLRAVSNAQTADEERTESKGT

Ca++ response to 1 uM MCH, relative fluorescence units (FLIPR), baseline approximately 700 RFU: 5000 RFU and 6000 RFU
EC50 for MCH-mediated Ca++-mobilization (fluorometric imaging plate reader) on I3.4.2 cells: 0.09 µM
EC50 for receptor activation, Ca++-mobilization assay (FLIPR) on T42402I3.4.2 cells: 0.08 µM
Substance: melanin-concentrating hormone (MCH) (from UniProt P20382 147-165) (peptide)
